This is an account of results in patent publication US11370837 (dated 2022).

Residue numbers refer to the chain shown, from its start.

Assay [1] concerns the target T1, human TIGIT-his (human, UniProt Q495A1).
T1 chain: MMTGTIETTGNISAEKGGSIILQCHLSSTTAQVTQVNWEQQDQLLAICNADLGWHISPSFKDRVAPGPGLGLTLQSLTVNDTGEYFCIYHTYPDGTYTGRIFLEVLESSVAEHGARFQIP
The assay is described as follows: BLI. For orientation: BLI is a label-free optical method that tracks binding on a fibre tip over time.

For assay [2], the target named is T2, mouse TIGIT-his (mouse, UniProt P86176).
T2 chain: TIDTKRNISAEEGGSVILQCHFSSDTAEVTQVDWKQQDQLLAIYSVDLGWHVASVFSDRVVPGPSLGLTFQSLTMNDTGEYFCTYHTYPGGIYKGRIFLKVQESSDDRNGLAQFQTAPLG
The assay is described as follows: BLI.

Assay [3] has as its target monkey TIGIT-his (monkey). The assay is described as follows: BLI.
The target of assay [4] is T3, human TIGIT on CHO cells (human, UniProt Q495A1).
T3 chain: T1 chain
The assay is described as follows: FACS. In general terms: In flow cytometry, cells or beads pass a laser one at a time.

For assay [5], the target named is T3, human TIGIT on CHO cells. The assay can be described thus: FACS, CHO-expressed antibody.
Assay [6] concerns the target T3, human TIGIT on CHO cells. The assay is described as follows: competition, CD155 blocking FACS.
For assay [7], the target named is T3, human TIGIT on CHO cells. The assay can be described thus: competition, CD155 blocking FACS.
Assay [8] addresses T3, human TIGIT on CHO cells. The assay is described as follows: competition.

monkey TIGIT-his (monkey), sequence (Q495A1 other isoform, or with tags, fused parts or gaps): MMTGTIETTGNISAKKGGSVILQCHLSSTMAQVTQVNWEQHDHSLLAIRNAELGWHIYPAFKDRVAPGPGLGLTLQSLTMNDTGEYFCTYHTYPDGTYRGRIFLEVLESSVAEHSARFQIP

B1: ADI-30336 (antibody, V domains shown)
VH: QLQLQESGPGLVKPSETLSLTCTVSGGSISSSRYYWGWIRQPPGKGLEWIGSIYYSGSTYYNPSLKSRVTISVDTSKNQFSLKLSSVTAADTAVYYCARDGLYHTPEYFQHWGQGTLVTVSS
VL: EIVLTQSPATLSLSPGERATLSCRASQSVSSYLAWYQQKPGQAPRLLIYDASNRATGIPARFSGSGSGTDFTLTISSLEPEDFAVYYCQQRFAHPYTFGGGTKVEIK
As usually defined, the Kd is the free concentration of one partner at which half of the binding sites on the other are occupied at equilibrium, for simple one-to-one binding. The term EC50 denotes the midpoint of the concentration-response curve. The term IC50 denotes the concentration at which inhibition is half-maximal. Consider B1, for which the Kd turned out to be 1.46 nM in assay [1] and 0.556 nM in assay [3]. For the same molecule, the binding result in assay [2] was “no binding”. For the same molecule, the values for the EC50 in assay [4] and in assay [5] were 0.629 nM and 0.13 nM, respectively. Besides, the IC50 in assay [6] was 0.409 nM; in assay [7], 0.122 nM.

B2: ADI-30278 (antibody, V domains shown)
VH: QVQLVQSGAEVKKPGASVKVSCKASGYTFTEYYMHWVRQAPGQGLEWMGIISPSAGSTKYAQKFQGRVTMTRDTSTSTVYMELSSLRSEDTAVYYCARDHDIRLAGRLADYWGQGTLVTVSS
VL: DIQMTQSPSSVSASVGDRVTITCRASQGISSWLAWYQQKPGKAPKLLISAASSLQSGVPSRFSGSGSGTDFTLTISSLQPEDFATYYCQQAVILPITFGGGTKVEIK
Take B2: the Kd in assay [1] stood at 1.75 nM; in assay [3], 4.53 nM. Besides, the binding result in assay [2] was “no binding”. Also, the EC50 in assay [4] amounted to 0.409 nM; in assay [5], 0.132 nM. In addition, the IC50 is 0.217 nM in assay [6] and 0.116 nM in assay [7].

B3: ADI-30272 (antibody, V domains shown)
VH: B2 VH with K59S, R103A, L104A
VL: B2 VL
Molecule B3 registered an EC50 in assay [4] of 0.61 nM. In assay [8], the 50% inhibitory concentration (IC50) came out at 0.404 nM.

B4: ADI-30306 (antibody, V domains shown)
VH: QLQLQESGPGLVKPSETLSLTCTVSGGSISSSLYYWGWIRQPPGKGLEWIGSIYYSGSTFYNPSFKSRVTISVDTSKNQFSLKLSSVTAADTAVYYCAREAGRGTTGLLFDYWGQGTLVTVSS
VL: DIQMTQSPSTLSASVGDRVTITCRASQSISSWLAWYQQKPGKAPKLLIYKASSLESGVPSRFSGSGSGTEFTLTISSLQPDDFATYYCQQYGILPRTFGGGTKVEIK
As to B4, the dissociation constant (Kd) was 2.7 nM in assay [1] and 3.44 nM in assay [3]. For the same molecule, the binding result in assay [2] is “no binding”.
